This passage reports EC50 (read off the curve) results from patent US20240327544A1.

For the assay, the target named is human FcγRIa expressed on transiently transfected CHO-S cells (human) (UniProt P12314). As to the kind of experiment: flow cytometry, CHO-S cells transiently expressing human FcγRIa, PE-conjugated goat anti-human IgG F(ab')2, % PE+ cells. (In flow cytometry, cells or beads pass a laser one at a time.)
Sequence of human FcγRIa expressed on transiently transfected CHO-S cells (human) (P12314 16-374): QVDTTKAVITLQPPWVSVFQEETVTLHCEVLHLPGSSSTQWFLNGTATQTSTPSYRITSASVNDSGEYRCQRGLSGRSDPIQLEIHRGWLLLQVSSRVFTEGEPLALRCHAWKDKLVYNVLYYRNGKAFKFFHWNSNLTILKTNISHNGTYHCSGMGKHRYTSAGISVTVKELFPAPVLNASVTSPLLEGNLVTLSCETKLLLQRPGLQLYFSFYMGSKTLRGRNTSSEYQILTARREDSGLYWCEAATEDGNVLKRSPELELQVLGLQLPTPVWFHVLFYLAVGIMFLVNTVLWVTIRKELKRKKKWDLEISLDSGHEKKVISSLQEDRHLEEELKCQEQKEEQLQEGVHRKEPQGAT

One may read the EC50 (read off the curve) as the concentration at which the effect is half-maximal. As to nivolumab (antibody), the EC50 (read off the curve) amounted to 0.2 µg/mL.
